T1: S. cerevisiae Orc1 (S. cerevisiae, UniProt P54784 1-914)
T1 construct: Orc1, S. cerevisiae, wild type; Stood in the assays as a subunit of ScORC·DNA(·Cdc6); also called ScOrc1; source: High5 insect cells, co-expressed and purified as a subunit of ScORC; not shown: His6, N-terminal, cleaved
T1 sequence (looked up): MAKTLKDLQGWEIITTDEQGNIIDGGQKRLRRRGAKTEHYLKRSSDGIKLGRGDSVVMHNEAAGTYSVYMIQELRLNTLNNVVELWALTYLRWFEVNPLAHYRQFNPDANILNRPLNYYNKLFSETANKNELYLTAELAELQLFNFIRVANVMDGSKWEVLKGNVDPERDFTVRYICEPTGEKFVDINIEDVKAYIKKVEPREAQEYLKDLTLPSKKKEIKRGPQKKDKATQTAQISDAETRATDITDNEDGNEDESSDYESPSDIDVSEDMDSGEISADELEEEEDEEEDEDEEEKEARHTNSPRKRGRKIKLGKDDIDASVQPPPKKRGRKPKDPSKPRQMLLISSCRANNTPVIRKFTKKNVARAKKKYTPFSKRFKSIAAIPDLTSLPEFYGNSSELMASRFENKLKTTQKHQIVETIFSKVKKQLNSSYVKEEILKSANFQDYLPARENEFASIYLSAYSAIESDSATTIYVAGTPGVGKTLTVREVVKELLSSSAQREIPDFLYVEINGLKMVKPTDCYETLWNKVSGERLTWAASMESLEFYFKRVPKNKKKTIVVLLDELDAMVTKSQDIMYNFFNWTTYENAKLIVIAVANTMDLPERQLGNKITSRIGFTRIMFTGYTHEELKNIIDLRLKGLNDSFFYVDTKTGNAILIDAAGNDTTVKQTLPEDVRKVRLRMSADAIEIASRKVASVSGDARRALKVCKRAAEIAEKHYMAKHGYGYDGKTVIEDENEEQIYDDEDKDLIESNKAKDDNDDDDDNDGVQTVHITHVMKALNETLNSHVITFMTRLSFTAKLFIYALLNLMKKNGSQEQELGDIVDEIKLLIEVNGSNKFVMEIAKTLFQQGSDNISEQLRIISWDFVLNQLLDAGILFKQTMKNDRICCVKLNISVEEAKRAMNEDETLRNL

B1: S. cerevisiae Orc6 (natural protein, UniProt P38826 1-435, looked up)
chain: MSMQQVQHCVAEVLRLDPQEKPDWSSGYLKKLTNATSILYNTSLNKVMLKQDEEVARCHICAYIASQKMNEKHMPDLCYYIDSIPLEPKKAKHLMNLFRQSLSNSSPMKQFAWTPSPKKNKRSPVKNGGRFTSSDPKELRNQLFGTPTKVRKSQNNDSFVIPELPPMQTNESPSITRRKLAFEEDEDEDEEEPGNDGLSLKSHSNKSITGTRNVDSDEYENHESDPTSEEEPLGVQESRSGRTKQNKAVGKPQSELKTAKALRKRGRIPNSLLVKKYCKMTTEEIIRLCNDFELPREVAYKIVDEYNINASRLVCPWQLVCGLVLNCTFIVFNERRRKDPRIDHFIVSKMCSLMLTSKVDDVIECVKLVKELIIGEKWFRDLQIRYDDFDGIRYDEIIFRKLGSMLQTTNILVTDDQYNIWKKRIEMDLALTEPL
modifications: mixture of unphosphorylated and phosphorylated Orc6, including established CDK sites (sites not given)
notes: Orc6, S. cerevisiae, wild type; Stood in the assays as a subunit of ScORC·DNA(·Cdc6); also called ScOrc6; holds Orc6-CBN (N-terminal cyclin box fold) and Orc6-CBC (C-terminal cyclin box fold); source: High5 insect cells, co-expressed and purified as a subunit of ScORC
B2: S. cerevisiae Cdc6 (ScCdc6), full length (natural protein, UniProt P09119 1-513, looked up)
chain: MSAIPITPTKRIRRNLFDDAPATPPRPLKRKKLQFTDVTPESSPEKLQFGSQSIFLRTKALLQKSSELVNLNSSDGALPARTAEYEQVMNFLAKAISEHRSDSLYITGPPGTGKTAQLDMIIRQKFQSLPLSLSTPRSKDVLRHTNPNLQNLSWFELPDGRLESVAVTSINCISLGEPSSIFQKIFDSFQDLNGPTLQIKNMQHLQKFLEPYHKKTTFVVVLDEMDRLLHANTSETQSVRTILELFLLAKLPTVSFVLIGMANSLDMKDRFLSRLNLDRGLLPQTIVFQPYTAEQMYEIVIQKMSSLPTIIFQPMAIKFAAKKCAGNTGDLRKLFDVLRGSIEIYELEKRFLLSPTRGSLNSAQVPLTPTTSPVKKSYPEPQGKIGLNYIAKVFSKFVNNNSTRTRIAKLNIQQKLILCTIIQSLKLNSDATIDESFDHYIKAITKTDTLAPLQRNEFLEICTILETCGLVSIKKTKCKGKTKRFVDKIDVDLDMREFYDEMTKISILKPFLH
notes: Cdc6, S. cerevisiae, wild type; also called co-loader; source: High5 insect cells, baculovirus, purified as ScORC (HisTrap, amylose, TEV cleavage, HisTrap, Superdex 200); not shown: His6, N-terminal, cleaved; MBP, N-terminal, cleaved

What was measured:
Assay in all cases: cryo-EM structure; ScORC (2.5 uM), 84 bp ARS1 DNA (3 uM) and ScCdc6 (6.8 uM) reconstituted with 1 mM ATP, purified on Superose 6 in 25 mM HEPES-KOH pH 7.6, 250 mM potassium acetate, 10 mM magnesium acetate, 1 mM DTT, 0.2 mM ATP; not cross-linked; masked 3D classification
Conditions in all cases: both partners purified
[1] = biological target: B2
[2] = biological target: T2, S. cerevisiae Origin Recognition Complex (ScORC), full-length Orc1-6 (S. cerevisiae, UniProt P54784 1-914; P32833 1-620; P54790 1-616; P54791 1-529; P50874 1-479; P38826 …, mixture of unphosphorylated and phosphorylated Orc6, including established CDK sites (sites not given))
T2 construct: Orc1, S. cerevisiae, wild type; Orc2, S. cerevisiae, wild type; Orc3, S. cerevisiae, wild type; Orc4, S. cerevisiae, wild type; Orc5, S. cerevisiae, wild type; Orc6, S. cerevisiae, wild type; also called initiator; source: High5 insect cells co-infected with baculoviruses, purified (HisTrap, amylose, TEV cleavage, HisTrap, Sephacryl S-400); not shown: His6, N-terminal, cleaved; MBP, N-terminal, …

S. cerevisiae Orc1 = biological target: T1, S. cerevisiae Orc1

T2 sequence (P32833 whole entry, chain 2 of 4): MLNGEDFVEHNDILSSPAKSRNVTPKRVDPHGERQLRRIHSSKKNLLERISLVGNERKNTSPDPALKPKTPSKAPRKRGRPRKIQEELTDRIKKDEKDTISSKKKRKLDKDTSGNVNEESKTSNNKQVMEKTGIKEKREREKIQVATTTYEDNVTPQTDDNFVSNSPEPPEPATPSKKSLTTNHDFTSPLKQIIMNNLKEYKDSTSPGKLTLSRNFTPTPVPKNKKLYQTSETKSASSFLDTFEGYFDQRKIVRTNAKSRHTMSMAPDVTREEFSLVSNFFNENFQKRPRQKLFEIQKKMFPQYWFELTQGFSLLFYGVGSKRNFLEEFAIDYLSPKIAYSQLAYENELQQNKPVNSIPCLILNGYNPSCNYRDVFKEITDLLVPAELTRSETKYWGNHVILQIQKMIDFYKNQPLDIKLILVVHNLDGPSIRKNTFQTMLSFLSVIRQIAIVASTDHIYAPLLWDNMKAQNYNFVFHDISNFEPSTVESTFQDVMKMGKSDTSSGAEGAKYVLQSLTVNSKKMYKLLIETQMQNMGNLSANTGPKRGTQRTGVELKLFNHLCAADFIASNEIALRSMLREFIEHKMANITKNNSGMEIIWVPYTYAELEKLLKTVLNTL
T2 sequence (P54790 whole entry, chain 3 of 4): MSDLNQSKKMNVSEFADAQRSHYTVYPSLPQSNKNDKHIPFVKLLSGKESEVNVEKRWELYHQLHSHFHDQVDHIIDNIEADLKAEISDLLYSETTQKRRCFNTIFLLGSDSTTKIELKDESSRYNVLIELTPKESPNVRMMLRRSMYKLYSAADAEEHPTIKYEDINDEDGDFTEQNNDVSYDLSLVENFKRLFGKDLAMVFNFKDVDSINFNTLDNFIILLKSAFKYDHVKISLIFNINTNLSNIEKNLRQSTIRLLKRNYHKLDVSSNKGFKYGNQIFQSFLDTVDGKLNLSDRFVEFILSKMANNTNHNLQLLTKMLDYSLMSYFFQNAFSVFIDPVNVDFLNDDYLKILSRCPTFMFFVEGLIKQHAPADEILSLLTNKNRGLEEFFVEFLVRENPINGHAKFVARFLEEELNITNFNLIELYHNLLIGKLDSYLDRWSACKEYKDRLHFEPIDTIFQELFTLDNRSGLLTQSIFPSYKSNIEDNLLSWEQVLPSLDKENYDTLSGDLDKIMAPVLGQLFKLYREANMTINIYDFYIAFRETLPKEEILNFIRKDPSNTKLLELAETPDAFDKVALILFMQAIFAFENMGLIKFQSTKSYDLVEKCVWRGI
T2 sequence (P54791 whole entry, chain 4 of 4): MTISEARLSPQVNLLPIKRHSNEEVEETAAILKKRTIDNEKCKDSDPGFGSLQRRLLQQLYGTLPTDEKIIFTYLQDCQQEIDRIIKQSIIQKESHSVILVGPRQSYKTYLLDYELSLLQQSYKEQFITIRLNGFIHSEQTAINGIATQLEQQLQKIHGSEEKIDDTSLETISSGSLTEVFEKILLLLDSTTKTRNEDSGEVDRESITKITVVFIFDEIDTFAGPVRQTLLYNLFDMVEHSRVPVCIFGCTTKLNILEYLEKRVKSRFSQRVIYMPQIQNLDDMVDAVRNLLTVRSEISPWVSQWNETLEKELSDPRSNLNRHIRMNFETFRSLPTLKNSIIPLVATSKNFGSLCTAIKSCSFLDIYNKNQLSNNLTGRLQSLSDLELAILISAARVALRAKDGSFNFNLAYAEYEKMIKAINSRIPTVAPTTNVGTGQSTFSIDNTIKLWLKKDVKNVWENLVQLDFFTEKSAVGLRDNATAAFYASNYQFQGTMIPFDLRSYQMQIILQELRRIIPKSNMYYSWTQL
T2 sequence (P50874 whole entry, chain 5 of 4): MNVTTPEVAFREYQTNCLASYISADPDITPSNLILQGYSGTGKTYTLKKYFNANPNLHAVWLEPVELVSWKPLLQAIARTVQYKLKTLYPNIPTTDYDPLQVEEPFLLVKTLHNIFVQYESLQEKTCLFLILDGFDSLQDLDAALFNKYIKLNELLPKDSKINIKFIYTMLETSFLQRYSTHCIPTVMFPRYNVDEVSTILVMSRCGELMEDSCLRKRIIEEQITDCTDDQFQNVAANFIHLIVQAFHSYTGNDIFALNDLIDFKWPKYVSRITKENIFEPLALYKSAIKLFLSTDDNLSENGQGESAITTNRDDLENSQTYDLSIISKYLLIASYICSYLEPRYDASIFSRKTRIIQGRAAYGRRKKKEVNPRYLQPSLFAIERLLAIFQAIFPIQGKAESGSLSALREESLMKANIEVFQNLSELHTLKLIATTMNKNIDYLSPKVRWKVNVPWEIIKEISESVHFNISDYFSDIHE

| Binder | binding result [1] | binding result [2] | binding result (S. cerevisiae Orc1) |
| --- | --- | --- | --- |
| B1 | binds |  |  |
| B2 |  | binds | binds |
